In publication PMC12377726 (Proceedings of the National Academy of Sciences of the …, 2025):
Where a chain is given by its changes, count along the chain named.

B1: G001_gp1_V08_VRC01c_128 (antibody, V domains shown)
VH: QVQLVQSGAEVKKPGASVKVSCKASGYTFIDYYMHWVRQAPGQGLEWMGWINPNSGGTNYAQQFQGWVTMTRDTSISTAYMELSRLRSDDTAVYYCATSIVAAGSYWYFDLWGRGTLVTVSS
VL: EIVLTQSPGTLSLSPGERATLSCRASQSVTSSYLAWYQKKPGQAPRLLIYGASSRATGIPDRFSGSGSGTDFTLTISRLEPEDFAVYYCQQYEFFGQGTKLEIK
B2: G001_gp1_V08_VRC01c_130 (antibody, V domains shown)
VH: QVQLVQSGAEVKKPGASVKVSCKASGYTFTGYYMHWVRQAPGQGLEWLGWINPNSGGTNYAQKFQGWVTMTRDTSISTAYMELSRLRSDDTAVYYCATVAGYSSSWQRGWAFDIWGQGTMVTVSS
VL: B1 VL with R18G, T30S, Y33S, K39Q, Q91L, F94T, L101V
B3: G001_gp1_V08_VRC01c_133 (antibody, V domains shown)
VH: QVQLVQSGAEVKKPGASVKVSCKASGYTFTDYYLHWVRQAPGQGLEWMGWINPNSGGTNYARKFQDWVTMTRDTSISTAYMELSRLRSDDTAVYYCARGKTTVSWYFEYWAQGTLVTVSS
VL: B1 VL with T30S, K39Q, F84S, F94T, L101V
B4: G001_gp1_V08_VRC01c_134 (antibody, V domains shown)
VH: B1 VH with I30T, Q63K, R87T, V101K, A103T, G104N, S105Y, Y106N, Y108N
VL: EIVLTQSPGTLSLSPGERATLSCRASQSVTSNLAWYQQKPGQAPRLLIYGASSRATGIPDRFSGSGSGTDFTLTISRLEPEDFAVYYCQQYESFGQGTKLEIK
B5: G001_gp1_V08_VRC01c_131 (antibody, V domains shown)
VH: QVQLVQSGAEVKKPGASVKVSCKASGYTFTDYYIYWLRQAPGHGLEWMGWINPNSGGTNYAQKFQDWVTMTRDTSISTAYMELSRLSSDDTAVYYCARRNDYLGGSYRYSAFDIWGQGTMVTVSS
VL: B1 VL with S28K, T30S, S32R, K39Q, F94T
B6: G001_gp1_V08_VRC01c_139 (antibody, V domains shown)
VH: QVQLVQSGAEVKKPGASVKVSCKASGYTFTGSYMHWVRQAPGQGLEWMGWINPNSGGTNYAQKFQGRVTLTRDTSISTAYMELTRLRSDDTTVFYCATSRSGDWYFDLWGRGTLVTVSS
VL: B1 VL with V29A, T30S, K39Q, V86M, F94T
B7: G001_gp1_V08_VRC01c_145 (antibody, V domains shown)
VH: QVQLVQSGAEVKKPGASVKVSCRASGYTFTAYYIHWVRQAPGQGLEWMGWINPNSGGTNYAQKFQGRVTMTRDTSISTAYMELRRLRSDDTAVYYCARRFVSSGYYYAYWGQGTLVTVSS
VL: B1 VL with T30S, K39Q, I49F, V86I, Q91H, F94T, L101V
B8: G001_gp1_V08_VRC01c_140 (antibody, V domains shown)
VH: QVQLVQSGAEVKMPGTSVKVSCKASGYTFTDYYMHWVRQAPGQGLEWMGWINPNSGGTNYEQRFQGRVTMTRDTSISTAYMDLRRLRSDDTAVYYCATSLVETSTHWAFDLWGQGTMVTVSS
VL: DFQMTQSPSTLSASVGDRVTITCRTSQSFSTWLAWYQQKPGKAPKLLIYEASSLQSGVPSRFSGSGSGTEFTLTISSLQPDDLATYYCQQYETFGQGTKVAIK
B9: G001_gp1_V08_VRC01c_143 (antibody, V domains shown)
VH: QVQLVQSGAEVRKPGASVKVSCKASGFTFSDYYIHWVRQAPGQGLEWMGWINPNSGGTNYARKFQGRVTMTRDRSISTAYMELSRLRSDDTAVYYCARGLHTSGWYFAFWGQGTLVTVSS
VL: DIQMTQSPSSLSASVGDRVTITCQARQDTSNYLHWYQQKPGKAPKLLIYDASKLEPGVPSRFSGSGSGTDFTFTISNLQPEDIGTYYCQQYEAFGGGTKVEIK
B10: G001_gp1_V08_VRC01c_142 (antibody, V domains shown)
VH: QVQLVQSGAEVKKPGASVKVSCKASGYTFTGDYMHWVRQAPGQGLEWMGWINPNSGGTNYAQKFQGWVTMTRDTSISTAYMEVRLRSDDTAVYYCARAGYSSSWGFGFWGQGTLVTVSS
VL: QSVLTQPPSVSGAPGERVTISCTGSSSNIGAGYDVHWYQQLPGTAPKLLIFGTSNRPSGVPDRFSGSKSGTSASLAITGLQAEDEADYYCQSYEFFGGGTKLTVL
B11: G001_gp1_V08_VRC01c_116 (antibody, V domains shown)
VH: QVQLVQSGAEVKKPGASGKVSCKASGYTFTDYYMYWVRQAPGQGLEWMGWINPNSGGSNYAQKFQGRVTMTRDTSISTAYMELSRLRSDDTAVYYCARRSEDRKAFDIWGQGTMVTVSS
VL: DIQMTQSPSTLSASVGDRVTITCRASQSISSWLAWYQQKPGKAPKLLIYKASSLESGVPSKFSGSGSGTEFTLTISSLQPDDFATYYCQQYDTFGQGTKLQIK
B12: G001_gp1_V08_VRC01c_120 (antibody, V domains shown)
VH: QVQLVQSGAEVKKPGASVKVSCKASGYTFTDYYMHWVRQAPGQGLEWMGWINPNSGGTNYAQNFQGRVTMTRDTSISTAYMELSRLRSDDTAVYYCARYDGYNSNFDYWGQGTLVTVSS
VL: B11 VL with S31N, Y36F, S53N, K61R, Q90K, D92N, Q101E
B13: G001_gp1_V08_VRC01c_122 (antibody, V domains shown)
VH: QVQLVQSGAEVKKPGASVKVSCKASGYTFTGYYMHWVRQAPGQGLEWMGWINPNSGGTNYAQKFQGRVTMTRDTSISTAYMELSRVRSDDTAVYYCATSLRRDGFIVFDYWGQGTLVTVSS
VL: B11 VL with K61R, D92E, L100V, Q101E
B14: G001_gp1_V08_VRC01c_121 (antibody, V domains shown)
VH: QVQLVQSGAEVRKPGASVKVSCKASGYTFTDYYMHWVRQAPGQGLECMGWINPDSGGTNYAQKFQGRVTMTRDTSISTVYMELSRLRSDDTAVYYCARPALYDSSGYNWAYWGQGSLVTVSS
VL: B11 VL with S30N, S31R, A51T, S56N, K61R, S63N, Q90H, D92E, L100V, Q101E
B15: G001_gp1_V08_VRC01c_138 (antibody, V domains shown)
VH: QVQLVQSGAEVKKPGASVKVSCKASGYTFTDYYMYWVRQAPGQGLEWMGWINPNSGGTNYAQKFQGRVTMTRDTSISTAYMELSGLRSDDTAVYYCARRPNPYSGYDSNAFDIWGQGTMVTVSS
VL: B11 VL with K61R, F83S, D92E, L100V, Q101E
B16: G001_gp1_V08_VRC01c_146 (antibody, V domains shown)
VH: B15 VH with S77T, L83V, S84R, G85R, V93M, S108F
VL: B11 VL with S31N, A51T, S53N, S56G, K61R, F83L, D92E, T93M, L100V, Q101E
B17: G001_gp1_V08_VRC01c_141 (antibody, V domains shown)
VH: QVQLVQSGAEVKKPGASVKVSCKASGYSFTDYYMHWVRQAPGQGLEWMGWINPNSGGSNYAQKFQGRVTMTRDSFISTAYMELSRLRSDDTAVYYCAYYDSGTYRYWGQGTLVTVSS
VL: B11 VL with Y36F, K61R, D92E, L100V, Q101E
B18: G001_gp1_V08_VRC01c_123 (antibody, V domains shown)
VH: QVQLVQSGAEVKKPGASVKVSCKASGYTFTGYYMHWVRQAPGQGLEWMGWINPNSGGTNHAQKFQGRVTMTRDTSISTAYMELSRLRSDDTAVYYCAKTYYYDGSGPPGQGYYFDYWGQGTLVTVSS
VL: EIVMTQSPATLSVSPGERATLSCRANQSVSSNLAWYQQKPGQAPRLLIYGASTRATGIPARFSGSGSGTEFTLTISSLQSEDFAVYYCQQYNSFGQGTKLEIK
B19: G001_gp1_V08_VRC01c_136 (antibody, V domains shown)
VH: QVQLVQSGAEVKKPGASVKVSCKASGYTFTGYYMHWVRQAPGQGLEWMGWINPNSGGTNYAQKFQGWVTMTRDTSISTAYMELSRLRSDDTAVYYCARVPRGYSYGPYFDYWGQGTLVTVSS
VL: B18 VL with N26S, N92S, S93T, Q96G, L100V
B20: G001_gp1_V08_VRC01c_117 (antibody, V domains shown)
VH: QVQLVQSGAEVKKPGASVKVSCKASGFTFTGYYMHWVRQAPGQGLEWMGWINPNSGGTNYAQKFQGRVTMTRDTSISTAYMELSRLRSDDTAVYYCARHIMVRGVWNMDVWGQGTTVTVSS
VL: DIQMTQSPSSLSASVGDRVTITCQASQDISNYLNWYQQKPGKAPKLLIYDASNLEKGVPSRFSGGGSGTDFTFTISSLQPEDIATYYCQQYEFFGPGTKVDIK
B21: G001_gp1_V08_VRC01c_126 (antibody, V domains shown)
VH: QVQLVQSGAEVKKPGASVKVSCKASGYTFTGYYMHWVRQAPGQGLEWMGWINPNSGGTNYAQKFQDWVTMTRDTSISTAYMELNRLRSDDAAIYYCARADIVATIWALDYWGQGTLVTVSS
VL: B20 VL with N31T, K56T, G65S, I83S, E92G, F93T, P96Q, D101E
B22: G001_gp1_V08_VRC01c_144 (antibody, V domains shown)
VH: QVQLVQSGAEVKKPGASVKVSCKASGYTFSGHYMHWVRQAPGQGLEWMGWINPNSGGTNYAQKFQGRVTMTRDTSISSAYMELSRLRSDDTAVYYCATHTGSGSSWSFDSWGQGTLVTVSS
VL: B20 VL with K56T, G65S, F93Y, P96Q, K99R, V100L, D101E
B23: G001_gp1_V08_VRC01c_119 (antibody, V domains shown)
VH: QVQLVQSGADVKKPGASVKVSCKASGYTFSGYYMHWVRQAPGQGLEWMGWINPNSGGTNYAQNFQGRVTMTRDTSISTAYMELSSLTSDDTAVYYCASPRYSNGNRCYRYWGQGTLVTVSS
VL: B20 VL with Q38H, K39H, K42R, K56T, G65S, I83V, E92D, F93Y
B24: G001_gp1_V08_VRC01c_132 (antibody, V domains shown)
VH: QVQLVQSGAEVKKPGASVKVSCKASGYTFSGYYMHWVRQAPGQGLEWMGWINPNSGGTNYAQKFQGWVTMTRDTSISTAYMELSRLKSDDTAVYYCARVEHTSGWCFDSWGQGTLVTVSS
VL: B20 VL with Y49S, K56T, G65S, E92D, F93I, D101E
B25: G001_gp1_V08_VRC01c_135 (antibody, V domains shown)
VH: QVQLVQSGAEVKKPGASVKVSCKASGYIFTGYYMHWVRQAPGQGLEWMGWINPNSGGTNYAQKFQGWVTMTRDTSISTAYMELSRLRSDDTAVYYCASSVGVPAARGWAFDMWGQGTMVTVSS
VL: B20 VL with N53D, K56T, G65S, E92D, F93L

Target: eOD-GT8 (engineered outer domain germline-targeting version 8), monomer (HIV-1 gp120 engineered outer domain, …)

**Q.** Does B1 bind?
**A.** binds

**Q.** Does B2 bind?
**A.** binds

**Q.** Does B3 bind?
**A.** binds

**Q.** Does B4 bind?
**A.** binds

**Q.** Does B5 bind?
**A.** binds

**Q.** Does B6 bind?
**A.** binds

**Q.** Does B7 bind?
**A.** binds

**Q.** Does B8 bind?
**A.** binds

**Q.** Does B9 bind?
**A.** binds

**Q.** Does B10 bind?
**A.** binds

**Q.** Does B11 bind?
**A.** binds

**Q.** Does B12 bind?
**A.** binds

**Q.** Does B13 bind?
**A.** binds

**Q.** Does B14 bind?
**A.** binds

**Q.** Does B15 bind?
**A.** binds

**Q.** Does B16 bind?
**A.** binds

**Q.** Does B17 bind?
**A.** binds

**Q.** Does B18 bind?
**A.** binds

**Q.** Does B19 bind?
**A.** binds

**Q.** Does B20 bind?
**A.** binds

**Q.** Does B21 bind?
**A.** binds

**Q.** Does B22 bind?
**A.** binds

**Q.** Does B23 bind?
**A.** binds

**Q.** Does B24 bind?
**A.** binds

**Q.** Does B25 bind?
**A.** binds
